According to patent publication US20030190739A1, “Tankyrase2 materials and methods” (priority 1999, published 2003):

Test: Poly(ADP-ribose) polymerase activity assay (32P-NAD+, SDS-PAGE, autoradiography)
Assay type: biochemical
Settings: 250 ng protein, 10 min at room temperature, 2.5 μM unlabeled NAD+
Description: For poly(ADP-ribose) polymerase activity assays, reagents were obtained from Sigma unless otherwise indicated. PARP1A/TANK2B (250 ng) protein was incubated for 10 min at room temperature in Assay buffer (total volume of 20 μL) [100 mM Tris-HCl, pH 8.0, 10 mM MgCl2, 10% glycerol, 1.5 mM DTT (Boehringer Mannheim/Roche Molecular Biochemicals), 2.5 μM unlabeled NAD^+, 16.7 μg/mL E. coli Strain B DNA, and 0.33 μCi γ-[^32P]-NAD^+ (NEN, Boston, Mass.). Reactions were stopped by boiling in SDS running buffer and separated by SDS-polyacrylamide gel electrophoresis (SDS-PAGE). Autoradiography was used to visualize labeled protein. Addition of poly(ADP-ribose) polymers to protein substrate results in an increase in molecular weight of the protein, and consequently causes the protein to run higher on SDS PAGE. Also, the level of poly(ADP-ribose) polymers added to the protein substrate can vary with each single protein molecule, resulting in labeled proteins with different molecular weights, which appears on the autoradiography film as a ladder or smear [for example, see Smith et al. Science 282:2484-7 (1998)]. […] The PARP1A/TANK2B poly(ADP-ribose) polymerase reaction produced a ladder of labeled protein from approximately 136 kDa to 250 kDa.

PARP1A/TANK2B: Fusion protein containing aa 1-662 of PARP1 fused upstream of aa 996-1385 of TANK2 (SEQ ID NO:178)
intrinsic poly(ADP-ribose) polymerase activity: possessed intrinsic poly(ADP-ribose) polymerase activity
